Measurements published in US12312411 (Takeda / Millennium, dated 2025).

Tests used:
[1] = molecular target: cynomolgus CD38 on cells expressing recombinant cynomolgus CD38 (cynomolgus, UniProt Q5VAN0 1-301)
[2] = molecular target: T1, human CD38 on human multiple myeloma MOLP-8 cells (human, UniProt P28907 1-300); test: flow cytometry titration of IgG1 on MOLP-8 cells, nonlinear fit
[3] = molecular target: T1, human CD38 on human multiple myeloma …; test: cell-based or functional assay
[4] = molecular target: T1, human CD38 on human multiple myeloma …; test: flow cytometry, IgG1 at 100 nM on MOLP-8 cells, MFI over secondary-only control
[5] = molecular target: recombinant human CD38 (purified, plate-coated) (human, UniProt P28907 43-300); test: ELISA, plate-coated recombinant CD38, scFv-SLTA fusion titrated
[6] = molecular target: recombinant cynomolgus monkey CD38 (purified, plate-coated) (cynomolgus, UniProt Q5VAN0 44-301); test: ELISA, plate-coated recombinant cynomolgus CD38, scFv-SLTA fusion titrated

B1: CD38TM6 formatted into human IgG1 (antibody, V domains shown)
VH: EVQLLESGGGLVQPGGSLRLSCAASGFTFDDYGMTWVRQAPGKGLEWVSGINWNGGSTGYADSVKGRFTISRDNSKNTLYLQMNSLRAEDTAVYYCARGGLFHDSSGYYFGHWGQGTLVTVSS
VL: QSVLTQPPSASGTPGQRVTISCSGSSSNIGNSYVSWYQQLPGTAPKLLIYRNNQRPSGVPDRFSGSKSGTSASLAISGLRSEDEADYYCSAWDDNLSVLFGGGTKLTVL
- FOB (fold-over-background of MFI) [1]: 176 fold over background
- Kd [2]: 4.6 nM
- % ADCC (mean) [3]: 50.4%
- % CDC (mean) [3]: 34.3%
- FOB (fold-over-background of MFI) [4]: 104 fold over background

B2: CD38TM3 formatted into human IgG1 (antibody, V domains shown)
VH: QVQLVQSGAEVKKPGESLKISCKGSGYSFTSYWIGWVRQMPGKGLEWMGIIYPGDSDTRYSPSFQGQVTISADKSISTAYLQWSSLKASDTAMYYCARGPSTGFWSGNYFDYWGQGTLVTVSS
VL: QTVVTQEPSLTVSPGETVTLTCASSTGAVTSGFYPNWFQQKPGQAPRALIYATNNKYSWTPARFSGSLLGDKAALTLSRVQPEDEADYYCLVYYDGAWVFGGGTKLTVLG
- FOB (fold-over-background of MFI) [1]: 528 fold over background

B3: CD38TM5 formatted into human IgG1 (antibody, V domains shown)
VH: EVQLLESGGGLVQPGGSLRLSCAASGFTFSDYYMNWIRQAPGKGLEWVSSISSSSSYIYYADSVKGRFTISRDNSKNTLYLQMNSLRAEDTAVYYCATEGPYYLYGFDIWGQGTLVTVSS
VL: QSVLTQPPSASGTPGQRVTISCSGSSSNIGSNYVYWYQQLPGTAPKLLIYGNSNRPSGVPDRFSGSKSGTSASLAISGLRSEDEADYYCQSYDNTLSGVIFGGGTKLTVLG
- FOB (fold-over-background of MFI) [1]: 104 fold over background
- Kd [2]: 34 nM
- % ADCC (mean) [3]: 35.2%
- % CDC (mean) [3]: 4.7%
- FOB (fold-over-background of MFI) [4]: 550 fold over background

B4: CD38TM2 formatted into human IgG1 (antibody, V domains shown)
VH: EVQLLESGGGLVQPGGSLRLSCAASGFTFSSYWMHWVRQAPGKGLEWVSAISGSGGGTFYADSVKGRFTISRDNSKNTLYLQMNSLRAEDTAVYYCAREGETSFGLDVWGQGTLVTVSS
VL: QSVLTQPPSASGTPGQRVTISCSGSSSNIGGNYVYWYQQLPGTAPKLLIYRNNQRPSGVPDRFSGSKSGTSASLAISGLRSEDEADYYCQSYDSSLSVSVFGGGTKLTVLG
- FOB (fold-over-background of MFI) [1]: 272 fold over background

B5: CD38 targeting reference molecule #1 (CD38TR1) scFv fused to Shiga toxin A subunit (CD38TR1-SLTA) (scFv)
chain: MKEFTLDFSTAKTYVDSLNVIRSAIGTPLQTISSGGTSLLMIDSGSGDNLFAVDVRGIDPEEGRFNNLRLIVERNNLYVTGFVNRTNNVFYRFADFSHVTFPGTTAVTLSGDSSYTTLQRVAGISRTGMQINRHSLTTSYLDLMSHSGTSLTQSVARAMLRFVTVTAEALRFRQIQRGFRTTLDDLSGRSYVMTAEDVDLTLNWGRLSSVLPDYHGQDSVRVGRISFGSINAILGSVALILNCHHHASAVAAEFPKPSTPPGSSGGAPDIQMTQSPSSLSASVGDRVTITCKASEDIYNRLTWYQQKPGKAPKLLISGATSLETGVPSRFSGSGSGTDFTFTISSLQPEDIATYYCQQYWSNPYTFGQGTKVEIKGGGGSQVQLQESGPGLVRPSQTLSLTCTVSGFSLTSYGVHWVRQPPGRGLEWIGVMWRGGSTDYNAAFMSRLNITKDNSKNQVSLRLSSVTAADTAVYYCAKSMITTGFVMDSWGQGSLVTVSS
- Kd [5]: 7.7 ng/mL
- binding result [6]: no binding

B6: CD38TM1 formatted into human IgG1 (antibody, V domains shown)
VH: EVQLLESGGGLVQPGGSLRLSCAASGFTFSDYYMSWVRQAPGKGLEWVSAISGSGGSTYYADSVKGRFTISRDNSKNTLYLQMNSLRAEDTAVYYCAREHSNYFYGMDVWGQGTLVTVSS
VL: QSVLTQPPSASGTPGQRVTISCSGSSSNIGSNYVYWYQQLPGTAPKLLIYGNSNRPSGVPDRFSGSKSGTSASLAISGLRSEDEADYYCQSYDSSLSGSGVFGGGTKLTVLG
- Kd [2]: 32 nM
- % ADCC (mean) [3]: 29%
- % CDC (mean) [3]: 15%
